± gives the uncertainty stated by the source.
B1: Gamma-crystallin C, residues 91 to 170; numbered along this chain, P07315 (parent)
chain: RLYEREDHKGLMMELSEDCPSIQDRFHLSEIRSLHVLEGCWVLYELPNYRGRQYLLRPQEYRRCQDWGAMDAKAGSLRRV

Variants of: B1
Experiment: abundance fitness (aPCA) (normalised: wild type 0, dead -1); higher = more abundant; growth selection in yeast, the domain comes from the species named
Settings: Homo sapiens

Which abundance fitness does the source give for W67A here?
Its abundance fitness is -0.944 ± 0.22.

For W67C, which abundance fitness is on record?
Its abundance fitness is -0.703 ± 0.25.

Which abundance fitness does the source give for W67Q here?
Its abundance fitness is -0.681 ± 0.19.

Which abundance fitness does the source give for W67H here?
The abundance fitness was -0.89 ± 0.42.

With Y49E as the variant, how does the abundance fitness read?
Its abundance fitness is -0.734 ± 0.29.

With Y49M as the variant, how does the abundance fitness read?
Its abundance fitness is -0.981 ± 0.49.

With Y49R as the variant, how does the abundance fitness read?
Its abundance fitness is -0.9 ± 0.2.

For Y49V, which abundance fitness is on record?
The abundance fitness was -0.969 ± 0.5.

For Y49S, which abundance fitness is on record?
Its abundance fitness is -0.891 ± 0.17.

With Y49G as the variant, how does the abundance fitness read?
Its abundance fitness is -1.11 ± 0.48.

With Y49Q as the variant, how does the abundance fitness read?
Its abundance fitness is -0.85 ± 0.36.

With Y49H as the variant, how does the abundance fitness read?
Its abundance fitness is -0.94 ± 0.23.

With Y49L as the variant, how does the abundance fitness read?
Its abundance fitness is -0.906 ± 0.16.

With Y49N as the variant, how does the abundance fitness read?
The abundance fitness was -0.198 ± 0.3.

Which abundance fitness does the source give for Y49P here?
The abundance fitness was -0.942 ± 0.29.

Which abundance fitness does the source give for Y49W here?
The abundance fitness was -0.551 ± 0.13.

For Y49K, which abundance fitness is on record?
The abundance fitness was -0.918 ± 0.5.

With Y49C as the variant, how does the abundance fitness read?
Its abundance fitness is -0.914 ± 0.29.

For Y49A, which abundance fitness is on record?
Its abundance fitness is -1.04 ± 0.23.

Which abundance fitness does the source give for R57Q here?
The abundance fitness was -0.045 ± 0.13.

With R57S as the variant, how does the abundance fitness read?
Its abundance fitness is 0.018 ± 0.065.

With R57V as the variant, how does the abundance fitness read?
The abundance fitness was -0.14 ± 0.051.

With R57K as the variant, how does the abundance fitness read?
Its abundance fitness is -0.148 ± 0.24.

With R57I as the variant, how does the abundance fitness read?
The abundance fitness was -0.566 ± 0.43.

With R57F as the variant, how does the abundance fitness read?
Its abundance fitness is -0.067 ± 0.23.

With R57A as the variant, how does the abundance fitness read?
Its abundance fitness is 0.003 ± 0.078.

Which abundance fitness does the source give for R57C here?
The abundance fitness was -0.215 ± 0.13.

Which abundance fitness does the source give for R57H here?
Its abundance fitness is -0.034 ± 0.1.

With R57T as the variant, how does the abundance fitness read?
The abundance fitness was 0.052 ± 0.091.

With R57W as the variant, how does the abundance fitness read?
Its abundance fitness is -0.179 ± 0.092.

For R57D, which abundance fitness is on record?
The abundance fitness was -0.174 ± 0.14.

Which abundance fitness does the source give for R57M here?
The abundance fitness was -0.297 ± 0.097.

With R57E as the variant, how does the abundance fitness read?
Its abundance fitness is -0.064 ± 0.1.

For R57L, which abundance fitness is on record?
Its abundance fitness is -0.24 ± 0.12.

Which abundance fitness does the source give for R57G here?
The abundance fitness was -0.134 ± 0.061.

For R57N, which abundance fitness is on record?
Its abundance fitness is 0.021 ± 0.16.

Which abundance fitness does the source give for G68L here?
Its abundance fitness is -0.529 ± 0.092.

With G68S as the variant, how does the abundance fitness read?
Its abundance fitness is -0.44 ± 0.11.

For G68K, which abundance fitness is on record?
The abundance fitness was -0.623 ± 0.26.

For G68R, which abundance fitness is on record?
Its abundance fitness is -0.764 ± 0.12.

Which abundance fitness does the source give for G68D here?
The abundance fitness was -0.679 ± 0.27.

For G68T, which abundance fitness is on record?
The abundance fitness was -1.01 ± 0.28.

For G68Q, which abundance fitness is on record?
Its abundance fitness is -0.763 ± 0.2.

With G68P as the variant, how does the abundance fitness read?
Its abundance fitness is -0.784 ± 0.22.

Which abundance fitness does the source give for G68V here?
Its abundance fitness is -0.985 ± 0.29.

With G68A as the variant, how does the abundance fitness read?
The abundance fitness was -0.721 ± 0.15.

For G68C, which abundance fitness is on record?
Its abundance fitness is -0.696 ± 0.48.

With R62E as the variant, how does the abundance fitness read?
The abundance fitness was -0.6 ± 0.15.

For R62M, which abundance fitness is on record?
The abundance fitness was 0.195 ± 0.23.

Which abundance fitness does the source give for R62F here?
Its abundance fitness is -0.086 ± 0.14.

With R62Y as the variant, how does the abundance fitness read?
The abundance fitness was -0.252 ± 0.43.

For R62Q, which abundance fitness is on record?
The abundance fitness was -0.1 ± 0.11.

With R62N as the variant, how does the abundance fitness read?
Its abundance fitness is -0.64 ± 0.41.

With R62W as the variant, how does the abundance fitness read?
Its abundance fitness is -0.073 ± 0.11.

For R62D, which abundance fitness is on record?
The abundance fitness was -0.619 ± 0.21.

With R62T as the variant, how does the abundance fitness read?
The abundance fitness was -0.262 ± 0.075.

For R62V, which abundance fitness is on record?
The abundance fitness was -0.365 ± 0.093.

Which abundance fitness does the source give for R62G here?
The abundance fitness was -0.237 ± 0.074.

For R62S, which abundance fitness is on record?
Its abundance fitness is -0.069 ± 0.066.

For R62A, which abundance fitness is on record?
The abundance fitness was 0.07 ± 0.079.

Which abundance fitness does the source give for R62P here?
The abundance fitness was -0.196 ± 0.055.

Which abundance fitness does the source give for Q53S here?
Its abundance fitness is 0.074 ± 0.056.

Which abundance fitness does the source give for Q53P here?
Its abundance fitness is -0.144 ± 0.053.

With Q53L as the variant, how does the abundance fitness read?
The abundance fitness was -0.78 ± 0.12.

With Q53N as the variant, how does the abundance fitness read?
The abundance fitness was 0.005 ± 0.35.

Which abundance fitness does the source give for Q53W here?
The abundance fitness was -0.225 ± 0.11.

For Q53Y, which abundance fitness is on record?
Its abundance fitness is -0.159 ± 0.096.

For Q53C, which abundance fitness is on record?
The abundance fitness was -0.219 ± 0.1.

Which abundance fitness does the source give for Q53V here?
The abundance fitness was -0.747 ± 0.18.

For Q53E, which abundance fitness is on record?
The abundance fitness was 0.087 ± 0.086.

With Q53G as the variant, how does the abundance fitness read?
The abundance fitness was -0.103 ± 0.065.

With Q53A as the variant, how does the abundance fitness read?
The abundance fitness was -0.122 ± 0.056.

With Q53R as the variant, how does the abundance fitness read?
Its abundance fitness is -0.092 ± 0.051.

With Q53F as the variant, how does the abundance fitness read?
The abundance fitness was -0.425 ± 0.29.

With Q53D as the variant, how does the abundance fitness read?
Its abundance fitness is -0.241 ± 0.2.

Which abundance fitness does the source give for Q53T here?
Its abundance fitness is -0.197 ± 0.12.

With Q53M as the variant, how does the abundance fitness read?
Its abundance fitness is -0.345 ± 0.17.

Which abundance fitness does the source give for Q53K here?
The abundance fitness was -0.19 ± 0.17.

For Q53H, which abundance fitness is on record?
The abundance fitness was -0.386 ± 0.34.

With L56Y as the variant, how does the abundance fitness read?
Its abundance fitness is -0.926 ± 0.35.

Which abundance fitness does the source give for L56K here?
Its abundance fitness is -0.806 ± 0.44.

Which abundance fitness does the source give for L56P here?
The abundance fitness was -0.931 ± 0.21.

With L56S as the variant, how does the abundance fitness read?
The abundance fitness was -0.957 ± 0.18.
